B1: N-myc proto-oncogene protein (Homo sapiens), P04198 (parent)
chain: MPSCSTSTMPGMICKNPDLEFDSLQPCFYPDEDDFYFGGPDSTPPGEDIWKKFELLPTPPLSPSRGFAEHSSEPPSWVTEMLLENELWGSPAEEDAFGLGGLGGLTPNPVILQDCMWSGFSAREKLERAVSEKLQHGRGPPTAGSTAQSPGAGAASPAGRGHGGAAGAGRAGAALPAELAHPAAECVDPAVVFPFPVNKREPAPVPAAPASAPAAGPAVASGAGIAAPAGAPGVAPPRPGGRQTSGGDHKALSTSGEDTLSDSDDEDDEEEDEEEEIDVVTVEKRRSSSNTKAVTTFTITVRPKNAALGPGRAQSSELILKRCLPIHQQHNYAAPSPYVESEDAPPQKKIKSEASPRPLKSVIPPKAKSLSPRNSDSEDSERRRNHNILERQRRNDLRSSFLTLRDHVPELVKNEKAAKVVILKKATEYVHSLQAEEHQLLLEKEKLQARQQQLLKKIEHARTC
partner: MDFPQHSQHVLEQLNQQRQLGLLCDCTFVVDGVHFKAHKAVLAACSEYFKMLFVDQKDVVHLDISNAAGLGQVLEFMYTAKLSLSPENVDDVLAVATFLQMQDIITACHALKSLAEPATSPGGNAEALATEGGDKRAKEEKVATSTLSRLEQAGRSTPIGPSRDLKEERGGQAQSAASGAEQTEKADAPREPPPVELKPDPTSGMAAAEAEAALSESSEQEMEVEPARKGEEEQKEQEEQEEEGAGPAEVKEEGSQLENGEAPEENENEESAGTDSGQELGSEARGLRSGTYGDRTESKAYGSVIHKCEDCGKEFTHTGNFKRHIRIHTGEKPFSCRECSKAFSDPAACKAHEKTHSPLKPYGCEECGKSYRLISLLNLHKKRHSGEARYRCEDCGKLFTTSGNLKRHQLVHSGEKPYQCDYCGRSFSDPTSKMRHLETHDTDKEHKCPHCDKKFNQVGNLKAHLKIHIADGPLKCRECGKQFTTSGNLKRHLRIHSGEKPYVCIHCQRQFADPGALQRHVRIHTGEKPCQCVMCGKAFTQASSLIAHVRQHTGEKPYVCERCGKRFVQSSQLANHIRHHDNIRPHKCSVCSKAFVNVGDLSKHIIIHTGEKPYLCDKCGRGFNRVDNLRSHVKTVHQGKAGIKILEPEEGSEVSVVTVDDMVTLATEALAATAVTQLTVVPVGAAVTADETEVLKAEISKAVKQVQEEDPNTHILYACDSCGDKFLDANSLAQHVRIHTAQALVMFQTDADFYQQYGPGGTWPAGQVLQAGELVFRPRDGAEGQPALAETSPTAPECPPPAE

Variants of: B1
Conditions: with zbt17_human ZBTB17, Q13105

| effect of a mutation on the interaction | Variant |
| --- | --- |
| decreasing interaction strength | MPSCSTSTMPGMICKNPDLEFDSLQPCFYPDEDDFYFGGPDSTPPGEDIWKKFELLPTPPLSPSRGFAEHSSEPPSWVTEMLLENELWGSPAEEDAFGLGGLGGLTPNPVILQDCMWSGFSAREKLERAVSEKLQHGRGPPTAGSTAQSPGAGAASPAGRGHGGAAGAGRAGAALPAELAHPAAECVDPAVVFPFPVNKREPAPVPAAPASAPAAGPAVASGAGIAAPAGAPGVAPPRPGGRQTSGGDHKALSTSGEDTLSDSDDEDDEEEDEEEEIDVVTVEKRRSSSNTKAVTTFTITVRPKNAALGPGRAQSSELILKRCLPIHQQHNYAAPSPYVESEDAPPQKKIKSEASPRPLKSVIPPKAKSLSPRNSDSEDSERRRNHNILERQRRNDLRSSFLTLRDHVPELVKNEKAAKVDILKKATEYVHSLQAEEHQLLLEKEKLQARQQQLLKKIEHARTC [V421D] |

Reference: IntAct's records for PubMed 26766587
